Legend:
Type in all cases: in vivo, human
TOV-112D cells = assay: TOV-112D ovarian xenograft (subcutaneous) tumor growth inhibition; conditions: SCID mice (native murine Dll4); REGN421 2.5 mg/kg or mDll4Ab1 5 mg/kg 1x/week
Description: (§1) Ovarian tumor xenograft cells were implanted into humanized Dll4 SCID mice or vendor SCID mice (i.e., SCID mice expressing native murine Dll4). After implantation, mice were treated with REGN421 (anti-human Dll4 antibody, binds to human Dll4), mDll4Ab1 (anti-murine Dll4 antibody, binds to murine Dll4), or a human Fc domain control protein. In one study, mice were treated with VEGF-Trap, mDll4Ab1 or VEGF-Trap plus mDll4Ab1. TOV-112D cells (5×10^6) were implanted subcutaneously into the right flank of humanized Dll4 (n=4) or vendor SCID mice (n=7). Treatment with REGN421 (2.5 mg/kg, 1×/week) or mDll4Ab1 (5 mg/kg, 1×/week) vs. hFc control was initiated one week after tumor cell implantation. Animals were treated for 2 to 3 weeks. A2780 cells (2×10^6) were implanted intraperitoneally into humanized Dll4 or vendor SCID mice (n=4-5). Treatment with REGN421 (2.5 mg/kg, 1×/week) or mDll4Ab1 (5 mg/kg, 1×/week) vs. hFc control was initiated one week after tumor cell implantation. For the A2780 combination study, simultaneous treatment with mDll4Ab1 (5 mg/kg, 1×/week) and VEGF-Trap (10 mg/kg, 2×/week) was initiated one week after tumor cell implantation. A VEGF-Trap single treatment arm was included in this study. Animals bearing A2780 tumors were treated for 4-5 weeks. SKOV-3 cells (5×10^6) in matrigel were implanted subcutaneously and tumor-bearing animals (n=10) were dosed with REGN421 (2.5 mg/kg) and mDll4Ab1 (5 mg/kg) once weekly. OVCAR-3 cells (1×10^7) were implanted subcutaneously into the right flank of vendor SCID mice (n=7). Treatment with mDll4Ab1 (5 mg/kg 1×/week) vs. hFc control was initiated 66 days after tumor cell implantation. Animals were treated for a total of 5 weeks. Tumor growth inhibition (TGI) was measured as detailed above.

[1] = tested on: SKOV-3 ovarian tumor xenografts; assay: Tumor microvascular density by CD31 staining, SKOV-3 xenograft; conditions: native Dll4 SCID mice
Description: (§2) Quantitation of tumor microvascular density was evaluated immunohistochemically using CD31 staining. Native Dll4 SCID mice with TOV-112D and SKOV-3 ovarian tumor xenografts were treated with the anti-murine Dll4 antibody mDll4Ab1 or hFc (control). […] A reduction of tumor perfusion was also seen (data not shown).

[2] = tested on: TOV-112D and SKOV-3 ovarian tumor xenografts; assay: Tumor perfusion in ovarian tumor xenografts; conditions: data not shown
Description: as §2

A2780 cells = assay: A2780 ovarian xenograft (intraperitoneal) tumor growth inhibition; conditions: SCID mice (native murine Dll4); REGN421 2.5 mg/kg 1x/week, mDll4Ab1 5 mg/kg 1x/week, VEGF-Trap 10 mg/kg 2x/week
Description: as §1

[3] = tested on: TOV-112D ovarian tumor xenografts; assay: Tumor microvascular density by CD31 staining, TOV-112D xenograft; conditions: native Dll4 SCID mice
Description: as §2

SKOV-3 cells = assay: SKOV-3 ovarian xenograft (subcutaneous) tumor growth inhibition; conditions: SCID mice; mDll4Ab1 5 mg/kg once weekly
Description: as §1, with “SKOV-3 cells (5×10^6) in matrigel were implanted subcutaneously and tumor-bearing animals (n=10) were dosed with REGN421 (2.5 mg/kg) and mDll4Ab1 (5 mg/kg) once weekly. OVCAR-3 cells (1×10^7) were implanted subcutaneously into the right flank of vendor SCID mice (n=7). Treatment with mDll4Ab1 (5 mg/kg 1×/week) vs. hFc control was initiated 66 days after tumor cell implantation. Animals were treated for a total of 5 weeks.” left out

OVCAR-3 cells = assay: OVCAR-3 ovarian xenograft (subcutaneous) tumor growth inhibition; conditions: SCID mice; mDll4Ab1 5 mg/kg 1x/week, 5 weeks
Description: as §1, with “SKOV-3 cells (5×10^6) in matrigel were implanted subcutaneously and tumor-bearing animals (n=10) were dosed with REGN421 (2.5 mg/kg) and mDll4Ab1 (5 mg/kg) once weekly. OVCAR-3 cells (1×10^7) were implanted subcutaneously into the right flank of vendor SCID mice (n=7). Treatment with mDll4Ab1 (5 mg/kg 1×/week) vs. hFc control was initiated 66 days after tumor cell implantation. Animals were treated for a total of 5 weeks.” left out

B1: mDII4Ab1: anti-murine Dll4 antibody with LCVR and HCVR of SEQ ID NO:122 and 123 (antibody)
heavy: EVQLVESGGDLVKPGGSLKLSCTASGFTFSNYGMSWVRQTPDKRLGWVATISTAGSYTYYPDSVKGRFTISRDNAKNTLYLQMSSLKSEDTAMYYCARHPGVADFDYWGQGTTLTVSSAKTTAPSVYPLAPVCGDTTGSSVTLGCLVKGYFPEPVTLTWNSGSLSSGVHTFPAVLQSDLYTLSSSVTVTSSTWPSQSITCNVAHPASSTKVDKKIEPRGPTIKPCPPCKCPAPNLLGGPSVFIFPPKIKDVLMISLSPIVTCVVVDVSEDDPDVQISWFVNNVEVHTAQTQTHREDYNSTLRVVSALPIQHQDWMSGKEFKCKVNNKDLPAPIERTISKPKGSVRAPQVYVLPPPEEEMTKKQVTLTCMVTDFMPEDIYVEWTNNGKTELNYKNTEPVLDSDGSYFMYSKLRVEKKNWVERNSYSCSVVHEGLHNHHTTKSFSRTPGK
light: DIVMTQSHKFMSISEGDRVSITCKARQDVTTSVAWYQQKPGQSPKLLIYWASTRHTGVPDRFTGSGSGTDFTLTISSVQAEDLALYYCQQHYSTPYTFGGGTKLEIKRADAAPTVSIFPPSSEQLTSGGASVVCFLNNFYPKDINVKWKIDGSERQNGVLNSWTDQDSKDSTYSMSSTLTLTKDEYERHNSYTCEATHKTSTSPIVKSFNRGEC
% TGI (TOV-112D cells): 74% | Increase in Vessel Area vs. hFc (%) [1]: 146.8% | Vessel Area (%), percent vessel fraction over total tumor area [1]: 4.36% | tumor perfusion [2]: reduction | % TGI (A2780 cells): 70% | Increase in Vessel Area vs. hFc (%) [3]: 276.5% | Vessel Area (%), percent vessel fraction over total tumor area [3]: 5.53% | % TGI (SKOV-3 cells): 64% | % TGI (OVCAR-3 cells): 84%
